Assay results: publication PMC10814857 (2024)

Experiments:
Assay in all cases: FP
[1] = target: P7, fluorescein-labelled proline-rich peptide from the SOS1 proline-rich domain (human, UniProt Q07889, fluorescein (FITC) label, position not stated)
[2] = target: RP1, fluorescein-labelled reference peptide, a SOS1 derivative encompassing part of P3 (human, UniProt Q07889, fluorescein (FITC) label, position not stated)
[3] = target: P4, fluorescein-labelled proline-rich peptide from the SOS1 proline-rich domain (human, UniProt Q07889, fluorescein (FITC) label, position not stated)
[4] = target: RP2, fluorescein-labelled reference peptide from the N-terminal extension of the RHO GTPase WRCH1/RHOU (human, UniProt Q7L0Q8, fluorescein (FITC) label, position not stated)
[5] = target: P3, fluorescein-labelled proline-rich peptide from the SOS1 proline-rich domain (human, UniProt Q07889, fluorescein (FITC) label, position not stated)
[6] = target: P9, fluorescein-labelled proline-rich peptide from the SOS1 proline-rich domain (human, UniProt Q07889, fluorescein (FITC) label, position not stated)
[7] = target: P2, fluorescein-labelled proline-rich peptide from the SOS1 proline-rich domain (human, UniProt Q07889, fluorescein (FITC) label, position not stated)

Row | Kd [1] [µM] | Kd [2] [µM] | Kd [4] [µM] | Binder | other results
1 | 8.9 | – | – | ARHGEF30 (Obscurin/OBSCN) SH3 domain, GST cleaved (domain or fragment) EIFDIYVVTADYLPLGAEQDAITLREGQYVEVLDAAHPLRWLVRTKPTKSSPSRQGWVSPAYLDRRLK | –
2 | 67.3 | 11 | – | ABL2 SH3 domain, GST cleaved (domain or fragment) SDPNLFVALYDFVASGDNTLSITKGEKLRVLGYNQNGEWSEVRSKNGQGWVPSNYITPVNS | Kd [3]: 125 µM
3 | 58.5 | – | – | DLG2 SH3 domain, GST cleaved (domain or fragment) KRSLYVRAMFDYDKSKDSGLPSQGLSFKYGDILHVINASDDEWWQARRVMLEGDSEEMGVIPSKRRVERKE | –
4 | – | 2 | – | NCK1-2 SH3 domain, GST cleaved (domain or fragment) DLNMPAYVKFNYMAEREDELSLIKGTKVIVMEKCSDGWWRGSYNGQVGWFPSNYVTEEGD | –
5 | – | 16.7 | 15.5 | ARHGAP12 SH3 domain, GST cleaved (domain or fragment) PGQVYIEVEYDYEYEAKDRKIVIKQGERYILVKKTNDDWWQVKPDENSKAFYVPAQYVKEVTR | Kd [5]: 13.8 µM
6 | 12 | – | 48 | BIN1 SH3 domain, GST cleaved (domain or fragment) GFMFKVQAQHDYTATDTDELQLKAGDVVLVIPFQNPEEQDEGWLMGVKESDWNQHKELEKCRGVFPENFTERVP | Kd [6]: 47 µM
7 | – | – | – | ABI1 SH3 domain, GST cleaved (domain or fragment) NYIEKVVAIYDYTKDKDDELSFMEGAIIYVIKKNDDGWYEGVCNRVTGLFPGNYVESIMH | Kd [7]: 60.7 µM; Kd [3]: 24.6 µM
8 | – | 24.6 | 2.5 | NCK1-3, third SH3 domain of NCK1, GST cleaved (domain or fragment) QVLHVVQALYPFSSSNDEELNFEKGDVMDVIEKPENDPEWWKCRKINGMVGLVPKNYVTVMQN | –
